Source: the supplement of paper PMC12667976
± gives the standard error.

B1: library; numbered along this chain (parent)
chain: MATDAALRRLLRLHRTEIAVAVDSAFPLLHALADHDVVPEDKFQETLHLKEKEGCPQAFHALLSWLLTQDSTAILDFWRVLFKDYNLERYGRLQPILDSFPKDVDLSQPRKGRKPPAVPKALVPPPRLPTKRKASEEARAAAPAALTPRGTASPGSQLKAKPPKKPESSAEQQRLPLGNGIQTMSASVQRAVAMSSGDVPGARGAVEGILIQQVFESGGSKKCIQVGGEFYTPSKFEDSGSGKNKARSSSGPKPLVRAKGAQGAAPGGGEARLGQQGSVPAPLALPSDPQLHQKNEDECAVCRDGGELICCDGCPRAFHLACLSPPLREIPSGTWRCSSCLQATVQEVQPRAEEPRPQEPPVETPLPPGLRSAGEEVRGPPGEPLAGMDTTLVYKHLPAPPSAAPLPGLDSSALHPLLCVGPEGQQNLAPGARCGVCGDGTDVLRCTHCAAAFHWRCHFPAGTSRPGTGLRCRSCSGDVTPAPVEGVLAPSPARLAPGPAKDDTASHEPALHRDDLESLLSEHTFDGILQWAIQSMARPAAPFPS

Variants of: B1
Experiment: AIRE transcriptional activation functional score (insulin promoter-GFP; nonsense median 0, synonymous median 1) (normalised score); higher = higher AIRE activity (more reporter activation)
Settings: with insulin promoter-GFP reporter in HEK293
Protocol: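 Deep mutational scan of full-length human AIRE (codon-optimized cDNA, DT-POPCode NNN libraries over three regions) integrated at a Bxb1 landing pad in HEK293 cells carrying an insulin core promoter-GFP reporter at a Flp-In site. Cells were sorted for the top 10% GFP about 14 days after transfection. Variant frequency log-ratios (select vs non-select, TileSeq) were rescaled so that the nonsense median is 0 and the synonymous median is 1, then averaged over biological replicates.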

L444N and H458R are within error of each other in “AIRE transcriptional activation functional score” value: 0.882 ± 0.43 for the first, 0.586 ± 0.18 for the second.

G462M and L10G are within error of each other in “AIRE transcriptional activation functional score” value: -0.0181 ± 0.26 for the first, -0.12 ± 0.14 for the second.

Going from L511C to R513F, the “AIRE transcriptional activation functional score” value rises from 0.201 ± 0.42 to 1.18 ± 0.22.

Compared with A193N, R356K is lower in “AIRE transcriptional activation functional score” value: 1.14 ± 0.099 for the first, 0.935 ± 0.089 for the second.

First: A452F
Second: D70S
The “AIRE transcriptional activation functional score” value of the first is lower: 0.934 ± 0.055 for the first, 2.47 ± 0.55 for the second.

Q425T and G486K are within error of each other in “AIRE transcriptional activation functional score” value: 0.973 ± 0.3 for the first, 0.91 ± 0.17 for the second.

First: A117P
Second: Q57C
The “AIRE transcriptional activation functional score” value of the first is higher: 0.913 ± 0.48 for the first, -0.141 ± 0.37 for the second.

F318G and F318M are within error of each other in “AIRE transcriptional activation functional score” value: 1.39 ± 0.15 for the first, 1.54 ± 0.031 for the second.

Compared with F318E, Q108P is lower in “AIRE transcriptional activation functional score” value: 1.34 ± 0.18 for the first, 0.669 ± 0.36 for the second.

E329L and I209L are within error of each other in “AIRE transcriptional activation functional score” value: 1.16 ± 0.3 for the first, 0.758 ± 0.24 for the second.

First: R203W
Second: R92Y
The “AIRE transcriptional activation functional score” value of the first is higher: 0.289 ± 0.037 for the first, -0.675 ± 0.61 for the second.

Going from E353R to A532I, the “AIRE transcriptional activation functional score” value falls from 1.14 ± 0.19 to 0.447 ± 0.059.

A532N and D41R are within error of each other in “AIRE transcriptional activation functional score” value: 0.0785 ± 0.19 for the first, 0.0782 ± 0.29 for the second.

Going from D41V to P326H, the “AIRE transcriptional activation functional score” value rises from 0.0716 ± 0.31 to 0.781 ± 0.18.

Compared with Q172W, A141W is lower in “AIRE transcriptional activation functional score” value: 1.71 ± 0.064 for the first, 1.18 ± 0.22 for the second.

Going from A141E to E53S, the “AIRE transcriptional activation functional score” value falls from 1.49 ± 0.21 to 0.701 ± 0.54.

Going from E45C to G218F, the “AIRE transcriptional activation functional score” value rises from -2.39 ± 0.2 to 0.259 ± 0.13.

G218I and A404E are within error of each other in “AIRE transcriptional activation functional score” value: 1.14 ± 0.14 for the first, 0.954 ± 0.15 for the second.

G267N and G267Y are within error of each other in “AIRE transcriptional activation functional score” value: 0.868 ± 0.33 for the first, 1.02 ± 0.5 for the second.

A145T and A145K are within error of each other in “AIRE transcriptional activation functional score” value: 1.21 ± 0.8 for the first, 0.907 ± 0.56 for the second.

Compared with P539D, G263A is higher in “AIRE transcriptional activation functional score” value: 0.00758 ± 0.27 for the first, 0.875 ± 0.26 for the second.

Compared with A281H, E508F is lower in “AIRE transcriptional activation functional score” value: 1.11 ± 0.085 for the first, 0.724 ± 0.13 for the second.

A138H and E296R are within error of each other in “AIRE transcriptional activation functional score” value: 0.328 ± 0.22 for the first, 0.658 ± 0.33 for the second.

Compared with C322W, P509V is higher in “AIRE transcriptional activation functional score” value: 0.487 ± 0.025 for the first, 1.14 ± 0.23 for the second.

Compared with A373I, E298A is lower in “AIRE transcriptional activation functional score” value: 0.836 ± 0.18 for the first, 0.0161 ± 0.26 for the second.

Compared with E298N, E298T is lower in “AIRE transcriptional activation functional score” value: 1.56 ± 0.079 for the first, 0.228 ± 0.45 for the second.

First: P466T
Second: P466W
The “AIRE transcriptional activation functional score” value of the first is lower: 1.12 ± 0.2 for the first, 1.42 ± 0.038 for the second.

P466K and P125I are within error of each other in “AIRE transcriptional activation functional score” value: 0.864 ± 0.1 for the first, 1.36 ± 0.48 for the second.

Compared with P125T, S338P is lower in “AIRE transcriptional activation functional score” value: 1.42 ± 0.28 for the first, 0.56 ± 0.23 for the second.

Going from H48Q to D34F, the “AIRE transcriptional activation functional score” value falls from 1.5 ± 0.14 to 0.247 ± 0.14.

First: G498W
Second: N295A
The “AIRE transcriptional activation functional score” value of the first is higher: 1.45 ± 0.051 for the first, 0.906 ± 0.33 for the second.

A264D and K222L are within error of each other in “AIRE transcriptional activation functional score” value: -0.0126 ± 0.12 for the first, 0.0335 ± 0.19 for the second.

K222H and K165S are within error of each other in “AIRE transcriptional activation functional score” value: 0.644 ± 0.37 for the first, 0.597 ± 0.56 for the second.

L392W and L392Q are within error of each other in “AIRE transcriptional activation functional score” value: 1.22 ± 0.14 for the first, 1.18 ± 0.099 for the second.

S339L and S339D are within error of each other in “AIRE transcriptional activation functional score” value: 0.775 ± 0.22 for the first, 0.853 ± 0.26 for the second.

G333I and G333P are within error of each other in “AIRE transcriptional activation functional score” value: 0.774 ± 0.32 for the first, 0.594 ± 0.3 for the second.

Going from H448D to H448W, the “AIRE transcriptional activation functional score” value falls from 0.718 ± 0.11 to 0.403 ± 0.12.

I224P and A121T are within error of each other in “AIRE transcriptional activation functional score” value: 0.419 ± 0.17 for the first, 0.322 ± 0.49 for the second.

K221G and S71A are within error of each other in “AIRE transcriptional activation functional score” value: 0.945 ± 0.26 for the first, 1.08 ± 0.21 for the second.

First: P400Q
Second: D389Q
The “AIRE transcriptional activation functional score” value of the first is higher: 1.52 ± 0.52 for the first, -0.15 ± 0.18 for the second.

Going from D389V to E229S, the “AIRE transcriptional activation functional score” value rises from 0.292 ± 0.13 to 0.662 ± 0.18.

With W455N the “AIRE transcriptional activation functional score” value was 1.34 ± 0.048.
